Experimental findings from the DeepSol protein solubility set are described below.

This data set is described as follows: soluble on expression in E. coli; label from the status in PepcDB or PDB records.
Take “SASSQGKNELKLADWMATLPESMHSIPLTNLAIPGSHDSFSFYIDEASPVGPEQPETVQNFVSVFGTVAKKLMRKWLATQTMNFTGQLGAGIRYFDLRISTKPRDPDNELYFAHGLFSAKVNEGLEEINAFLTDHHKEVVFLDFNHFYGMQKYHHEKLVQMLKDIYGNKMCPAIFAQEVSLKYLWEKDYQVLVFYHSPVALEVPFLWPGQMMPAPWANTTDPEKLIQFLQASITERRKKGSFFISQVVLTPKASTVVKGVASGLRETITERALPAMMQWVRTQKPGESGINIVTADFVELGDFISTVIKLNYVFDEGEANT”: the “soluble on expression in E. coli” value was “soluble”.
For “MERLEEARKRLEEARRVAVLTGAGISKPSGIPTFRDAEGLWKNFNPLDYATPEAYARDPEKVWAWYAWRIQKVREAKPNPAHYALVELERRILSRGGSFLLVTQNVDGLHALAGSQNLVELHGNLLRARCEACGKRFPLPEAFAPPPFCPACGHRARPDVVWFGEFLPEGAWERAERAFAEADFALVVGTSAEVEPAASLGRIAFASGAYLVEVNPEPTPLTPLAHLSLRTGAVEGMALLLPPSPEDQAEGHLS”, the “soluble on expression in E. coli” value is listed as “soluble”.
On to “MAKTPGLNLSISERASNRLAEIYRNSKENLRISVESGGCHGFQYNLTLEPATKPDIKNDVKDKEFSDDLDDDDSKDIIYVLPEDKGRVIIDSKSLNILNNTTLTYTNELIGSSFKIINGSLKSSCGCGSSFDIEN”, for which the “soluble on expression in E. coli” value was “not soluble”.
In the case of “VLGSSSTDAIGPGSVFQIDATVADVYLVSRFNRTHIIGRPVLYIVQDCFSKLIVGLYVGLEGPSWIGAAMALANTAGNKVSFCSQYGIDIQEEEWPVHHLPQAILADRGEMLSDNAESLIMNLGITVKNTPPFRADWKPLVERYFKLTNERTKSLLPGAVNTDFMQRGGRDYRLDAKLDLMQFTAIIIKCALFHNNHYRIDNYNKDEMMVADEVEPIPREIWNWGIANRMGKLRHVDEEVVKLNLMPSDNGVVTAKGIRFKGLFYSSKSSMKEQWFVKARSSGSWKVPVSYDPRNMNYIYIKKSATEFEKCYLLEYQTAFKDKYIEEIEYLMEWEKMQKAKSLDEGLQAKADLITEIETIVEGAKSKTNKELSLSTESDAQRKKNIRQNRQVEKEINREIEAFELDRQPNNKNAEIISLNELEEELPSNPLDLLRRKQREMLGKINE”, the “soluble on expression in E. coli” value was “not soluble”.
In the case of “MSAFTPASEVLLRHSDDFEQSRILFAGDLQDDLPARLDTAASRAHTQQFQHWQVLSRQMGDNARFSLVATADDVADCDTLIYYWPKNKPEAQFQLMNLLSLLPVGTDIFVVGENRSGVRSAEQMLADYAPLNKVDSARRCGLYFGRLEKQPVFDADKFWGEYSVDGLTVKTLPGVFSRDGLDVGSQLLLSTLTPHTKGKVLDVGCGAGVLSVAFARHSPKIRLTLCDVSAPAVEASRATLAANGVEGEVFASNVFSEVKGRFDMIISNPPFHDGMQTSLDAAQTLIRGAVRHLNSGGELRIVANAFLPYPDVLDETFGFHEVIAQTGRFKVYRAIMTRQAKKG”, the “soluble on expression in E. coli” value is given as “not soluble”.
With “MGSDKIHHHHHHMAISVTAEEKQILAGVTIPPRPQALLDISKEAKQEYPDVSKIAKAISEDVGISAAVLQVVNSVAFRRNNQISSIHQAVMTLGIKRIFPLVKAVAIKGALPENPMLNEFWQSSSMVASACTLYANLLGKANLSDNAYMLGLFHNAGVPVMLQAFPAYQALLMRGITEGWGEVASLEVQEFKTSHTTLGALLAQQWELPKPMVEVIYYLHDIDGIFTSGELSEVGLYLLAILKLARSSVDGVIRGECNTDEWLKIQDPLLAFLNLDEVQLDEFREEVAEKLRSEG”, the “soluble on expression in E. coli” value is “not soluble”.
“MLSRRGKMKRIKVLRNGPYLVEGSVPLYEEVIVTDEEGHTREFVERRQFPLKERYVLCRCGESGNKPYCDGTHIRTGFDGTETASLEPYIERARVFRAGDLELTDVPELCDHSRFCLRAGGIRELLRKGDRESIQIAIEEAMICPSGRLVLWDRKTGKPYERDYEKSIVVIHDKQKRCEGPLWVRGGIPIESADGREYEVRNRVTLCRCGLSENKPFCDGSHWMTAEEKLEFKRKWGIELEHHHHHH”: the “soluble on expression in E. coli” value is “not soluble”.
As for “MGSDKIHHHHHHMYHDVSYLLSRLINGPLSLRQIYFASSNGPVPDLAYQVDFPRLEIVLEGEFVDTGAGATLVPGDVLYVPAGGWNFPQWQAPATTFSVLFGKQQLGFSVVQWDGKQYQNLAKQHVARRGPRIGSFLLQTLNEMQMQPQEQQTARLIVASLLSHCRDLLGSQIQTASRSQALFEAIRDYIDERYASALTRESVAQAFYISPNYLSHLFQKTGAIGFNEYLNHTRLEHAKTLLKGYDLKVKEVAHACGFVDSNYFCRLFRKNTERSPSEYRRQYHSQLTEKPTTPE”, the “soluble on expression in E. coli” value was “not soluble”.
With “QLVIERVSLPNPGKEKMTQALLTYVRRQGLSSLNWTPAAESLLERIRCAVDWLPEQAWPMFDEASLLDSLDEWLEPYMTSVA” the entry was “not soluble”; with “MAGDPMVMRLSKIYGKQIYTTKGKYVGYVDEVIIDIDEGRGEVVLLALPGERVGVPYERVTAVGDIILVEATTEKKRISQEGLEHHHHHH”, “not soluble”; with “MSSISLKEIIPPQPSTQRNFTTHLSYDPTTNAIAYPCGKSAFVRCLDDGDSKVPPVVQFTGHGSSVVTTVKFSPIKGSQYLCSGDESGKVIVWGWTFDKESNSVEVNVKSEFQVLAGPISDISWDFEGRRLCVVGEGRDNFGVFISWDSGNSLGEVSGHSQRINACHLKQSRPMRSMTVGDDGSVVFYQGPPFKFSASDRTHHKQGSFVRDVEFSPDSGEFVITVGSDRKISCFDGKSGEFLKYIEDDQEPVQGGIFALSWLDSQKFATVGADATIRVWDVTTSKCVQKWTLDKQQLGNQQVGVVATGNGRIISLSLDGTLNFYELGHDEVLKTISGHNKGITALTVNPLISGSYDGRIMEWSSSSMHQDHSNLIVSLDNSKAQEYSSISWDDTLKVNGITKHEFGSQPKVASANNDGFTAVLTNDDDLLILQSFTGDIIKSVRLNSPGSAVSLSQNYVAVGLEEGNTIQVFKLSDLEVSFDLKTPLRAKPSYISISPSETYIAAGDVMGKILLYDLQSREVKTSRWAFRTSKINAISWKPAEKGANEEEIEEDLVATGSLDTNIFIYSVKRPMKIIKALNAHKDGVNNLLWETPSTLVSSGADACIKRWNVVLE”, “soluble”.
Under “MSHDFAHTELEELLTRTREAIEASFGNRSPQVEVRGEGTDPDGHVRAVAVSGGRIETVEIAPQAVRLGSHRLAECALAAVNAALADLEAKAAEAAGLTGPQADALRERLREMQDLSLQQLRSYSRSLQDLMNSFERS” stands “not soluble”.
In the case of “MGSDKIHHHHHHMNFGYWYYREYFNTIKLNSEGIVTNFSTFNKGKNDKLIKGATLPPCDKENDIKDVTGFELKTCYPGLLCGVGYHHEINKPADEKGKKVEGDKEDDAPEVYNLGMYFDYTSGLPVIPGSSIKGMLRSAIEEWDFLADYELNNGVTREEIIEKVFVGKEYSIYDRDIFLDAIPIRVDNTLFGEDYITHHPNPLQNPNPVRFLRVEPGVTYQFRFILKDHGEKLTVDFRTKLFKAIICTFGLGAKTNVGYGQFVEP”, the “soluble on expression in E. coli” value is “not soluble”.
With “MMISIFSLLASTAILVFANGQSNVKLEFVQAMWRHGERASQVDQYPIYEKDWIYGGGGLGELTAIGMGEMNELGWLIRKRYVTKLKFLTPKYASREVYFRSTNFNRTIISAQSLLYGLFPPSLYDVKNVDYPYSPLTWFPGFTFVPVHVDGPDQCAASQNCPCTRYDLLQGQMLTLPEVLPKYTQVVLLNRRVGGYYNMTSGLDSFTTYPDTWKCQRAYFNRTMYAKLPWYNEELYYQAQVTYAPVKGFLEGNFENPAVTSSGLDVGLEIKKVRSGVIINEVFNRANEKLNCAELGQNCTSYLNKLKFYGYSIHDNNVYGVLVALGIPQIANTLDGWPAYAAGIFMEFHRNTSTNERFFKVLYREGDDTPISDVTSQLPICNGATLCPLGALQTLAETLKPLPDITTLCKTPL” the entry was “not soluble”; with “MAHHHHHHSLITANDIRAAHARGEQAMSVVLRASIITPEAREVAELLGFTITECDESVPASTSAQACKSESQRIREAIIAQLPEGQFTESLVAQLMEKVLKEKQSLELGTMQPSFTSVTGKGGVKVIDGSSVKFGRFDGAEPHCVGLTDLVTEQDGSSMAAGFMQWDNAFFPWTLNYDEIDMVLEGELHVRHEGETMIAKAGDVMFIPKGSSIEFGTPTSVRFLYVAWPANWQSVEG”, “soluble”.
Under “MGKQLESRTIPPYEPKAGEEYMSPEQLAHFRKILEYQRAELSMEIDRAVHVMQEESTIFADPADRATQESDMALELRSRDRERKLIKKIDEIFTKIDSGEYGYCEKCGIEIGLKRLEARPTASLCIDCKTLDEIRERQMAK” stands “not soluble”; under “MKQLTVEDAKQIELEILDYIDTLCKKHNINYIINYGTLIGAVRHEGFIPWDDDIDLSMPREDYQRFINIFQKEKSKYKLLSLETDKNYFNNFIKITDSTTKIIDTRNTKTYESGIFIDIFPIDRFDDPKVIDTCYKLESFKLLSFSKHKNIVYKDSLLKDWIRTAFWLLLRPVSPRYFANKIEKEIQKYSRENGQYMAFIPSKFKEKEVFPSGTFDKTIDLPFENLSLPAPEKFDTILTQFYGLEHHHHHH”, “not soluble”.
Under “MSLSDAFLSSIKNRRTIYALDKQLPVSQEKIVELVKEAVSHSPSAFNSQSSRVVVLFGAEHEQFWNIAKDELKKIVPADAFAATETKLNSFAAGAGTVLFFEDQTVVRQLQEQFALYADNFPVWSEQASGMAQFAVWTALAEHKVGASLQHYNPLVDAQTHKTWNLPESWKLRAQMPFGAIAAPAGEKAFIAESERFKVFGNEGGSHHHHHH” stands “soluble”; under “MGSDKIHHHHHHVVLDTDLASIQESRNLVQKAKEAQLHLAHFNEQQIDKILASIVAAVEENAEGLARMACQETEYGIVEHKIAKNLFAARDVYESTKHIKTIGTISEDPDRKVIRYAAPMGVLVGITPRTNPTSTIIHNALCAIKGANAIVFSPHPFAVQCGCATASLINEAAVKAGAPDGVCSCLSMTSLQASHELMHHPDVAAIIATGGPGLVKSAYSAGKPAFGVGSGNVPVFIERSADIKQAVNDIMVSKTFDNGMICASEQAILADQPIKDEVIKELQNQGAYFLSPEEVQKVGRVVIHANGSMNNALVGQSPAVIAQRAGISIPADTALLIAPMEGYGKDYPLSHEKLTTVLGFYVVQDWKEACHLSIELLKLGGIGHSCAIHSQNEQVIREFLAKPVFRIIVNTPSALGGIGQTTGIMPSLTLGCGTWGGSSISENLGPQHLINIKHLTYGLKKVAFHKVPATQGNVSPLLPPTKATSWDIKSDDIDDVVKQVLQQLKIG”, “not soluble”.
For “MSLYDVTEWKHVFKLDPNKDLPDEQLEILCESGTDAVIIGGSDGVTEDNVLRMMSKVRRFLVPCVLEVSAIEAIVPGFDLYFIPSVLNSKNADWIVGMHQKAMKEYGELMSMEEIVAEGYCIANPDCKAAALTEADADLNMDDIVAYARVSELLQLPIFYLEYSGVLGDIEAVKKTKAVLETSTLFYGGGIKDAETAKQYAEHADVIVVGNAVYEDFDRALKTVAAVKGEEGGSHHHHHH”, the “soluble on expression in E. coli” value is “soluble”.
For the sequence “MGSDKIHHHHHHMKITQIRNATLQLEFGGKTFLIDPMLAPKATYPGFPGTANDHLRNPLVELPLPMATILDVDAVIVTHTHLDHWDDAAIKAIPKTMPIFSQNAQDADLIRRAGFISVRVLGEQMEYDGITLIKTAGQHGSDETYANPQLAERLGEVCGIVFQHANEKSFYLAGDTVWNQHVIDVLTDYSPDVVALNIGNAFIPSFGSIIMGKEDVRRVHQLVPNAAIVATHMEAVNHCLLSRAELRDYLHEEKLQSIAHVPNDGESVQF”, the “soluble on expression in E. coli” value is “not soluble”.
Take “MMSGAEEPVAIIFPQSASDGVEVLYQEFSFGRYFNQIAAGVLRGIVQTRQPRQPLRILEVGGGTGGTTAWLLPELNGVPALEYHFTDISALFTRRAQQKFADYDFVKYSELDLEKEAQSQGFQAQSYDLIVAANVIHATRHIGRTLDNLRPLLKPGGRLLMREITQPMRLFDFVFGPLVLPLQDLDAREGELFLTTAQWQQQCRHAGFSKVAWLPQDGSPT”: the “soluble on expression in E. coli” value is “not soluble”.
